According to patent USRE46585 (LABORATOIRE FRANCAIS DU FRACTIONNEMENT ET DES …, dated 2017):
Positions count from the first letter of the chain named.

B1: B4A_03 (other)
chain: CPPCPAPELLGGPSVFLFPPKPKDTLMISRTPEVTCVVVDVSHEDPEVKFNWYVDGVEVHNAKTKPWEEQYNSTYRVVSVLPVLHQDWLNGKEYKCKVSNKALPVPIEKTISKAKGQPREPQVYTLPPSRDELTKNQVSLTCLVKGFYPSDIAVEWESNGQPENNYKTTPPVLDSDGSFFLYSKLTVDKSRWQQGNVFSCSVMHEALHSHYTQKSLSLSPGK
notes: EU numbering
B2: L6B_31 (other)
chain: B1 chain with P5T, W67R, V80A, P82A, V105A, A153V, L173P
notes: EU numbering
B3: B5A_17 (other)
chain: B1 chain with W67R, P82T, N90D, V105A, Q137R, S209Y
notes: EU numbering
B4: B5A_25 (other)
chain: B1 chain with F18L, W67R, P82T, N90D, V105A, T186A
notes: EU numbering
B5: L4A_28 (other)
chain: B1 chain with W67R, P82T, V105A, M203L, Q213R, P220S
notes: EU numbering
B6: B6A_31 (other)
chain: B1 chain with W67R, P82T, V105A, S150G, M203L, H208P, S209N
notes: EU numbering
B7: S4A_14 (other)
chain: B1 chain with N51S, W67R, P82T, V105A, A153V
notes: EU numbering
B8: S3A_06 (other)
chain: B1 chain with P5T, A6T, W67R, P82T, V105A, A153V, S209N
notes: EU numbering
B9: S4A_24 (other)
chain: B1 chain with V39E, W67R, R76C, P82T, V105A, A153V, E157G, S209N
notes: EU numbering
B10: B6A_41 (other)
chain: B1 chain with W67R, P82T, V105A, S209Y, Q213R, K222E
notes: EU numbering
B11: B6A_20 (other)
chain: B1 chain with W67R, P82T, K95T, V105A, S209Y, K214R, K222E
notes: EU numbering
B12: S4A_05 (other)
chain: B1 chain with W67R, P82T, V105A, A153V, D176A, S209Y
notes: EU numbering
B13: S4A_07 (other)
chain: B1 chain with W67R, V105A, N164T, S209Y
notes: EU numbering
B14: B5A_16 (other)
chain: B1 chain with S14A, W67R, S73G, P82T, N90D, V105A, Q122R, S209Y, S215R
notes: EU numbering
B15: S4A_17 (other)
chain: B1 chain with W67R, V77A, P82T, V105A, N164T
notes: EU numbering
B16: L3A_39 (other)
chain: B1 chain with W67R, P82T, V105A, S150G, P170S
notes: EU numbering
B17: C5A_65 (other)
chain: B1 chain with P5T, W67R, P82T, N90D, Q161K, S209Y
notes: EU numbering
B18: T4A_48 (other)
chain: B1 chain with W67R, P82T, V83I, N90D, E157V, S209Y
notes: EU numbering
B19: C6A_85 (other)
chain: B1 chain with W67R, V80A, P82T, N90D, N164K, S209Y
notes: EU numbering
B20: T5A_57 (other)
chain: B1 chain with F16L, W67R, P82T, N90D, K167R, S209Y
notes: EU numbering
B21: T6A_75 (other)
chain: B1 chain with P5T, W67R, P82T, N90D, V105A, Q137R, S201T, S209Y
notes: EU numbering
B22: T5A_45 (other)
chain: B1 chain with A6T, F16L, V39E, W67R, P82T, V105A, A153T, V172M
notes: EU numbering
B23: C6A_48 (other)
chain: B1 chain with P5T, V39E, W67R, P82T, V105A, A153V
notes: EU numbering
B24: C6A_12 (other)
chain: B1 chain with P5T, W67R, P82T, N90D, V105A, Q137E, S209Y
notes: EU numbering
B25: T4A_37 (other)
chain: B1 chain with P5S, V39E, W67R, P82T, V105A, P127S, A153V
notes: EU numbering
B26: T5A_87 (other)
chain: B1 chain with W67R, P82T, N90D, Q137R, S209Y
notes: EU numbering
B27: T6A_85 (other)
chain: B1 chain with T25A, W67R, P82T, N90D, N100S, S209Y
notes: EU numbering
B28: C5A_39 (other)
chain: B1 chain with K65E, W67R, P82T, N90D, V105A, Q117R, E157V, S209Y
notes: EU numbering
B29: T5A_55 (other)
chain: B1 chain with P5L, F16L, F18L, V39E, W67R, V105A, A153V, S209N
notes: EU numbering
B30: T4A_42 (other)
chain: B1 chain with C1G, W67R, P82T, N90D, V105A, Q137R, S209Y
notes: EU numbering
B31: T5A_93 (other)
chain: B1 chain with W67R, V80A, P82T, N90D, P170A, S209Y
notes: EU numbering
B32: T5A_25 (other)
chain: B1 chain with C1G, V39E, W67R, P82T, V105A, Q122R, K145R, A153V
notes: EU numbering
B33: T7A_92 (other)
chain: B1 chain with V39E, W67R, P82T, V105A, P171L, S190N
notes: EU numbering
B34: C8A_15 (other)
chain: B1 chain with W67R, P82T, N90D, A102V, V172M, S209Y
notes: EU numbering

Target: T1, FcRn-p3 fusion protein (human, UniProt P55899 24-297; P61769 21-119)
T1 construct: baculovirus expressed; coated on ELISA wells; not shown: amino terminal part of bacteriophage p3 protein and CVDE protein
T1 sequence (P55899 24-297, chain 1 of 2): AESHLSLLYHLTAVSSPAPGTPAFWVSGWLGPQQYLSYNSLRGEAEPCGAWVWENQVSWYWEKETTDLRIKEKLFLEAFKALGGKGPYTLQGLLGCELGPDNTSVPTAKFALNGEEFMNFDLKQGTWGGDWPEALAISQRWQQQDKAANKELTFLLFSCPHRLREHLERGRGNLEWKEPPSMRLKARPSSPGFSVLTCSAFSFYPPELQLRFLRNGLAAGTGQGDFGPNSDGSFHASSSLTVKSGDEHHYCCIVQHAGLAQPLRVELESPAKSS
T1 sequence (P61769 21-119, chain 2 of 2): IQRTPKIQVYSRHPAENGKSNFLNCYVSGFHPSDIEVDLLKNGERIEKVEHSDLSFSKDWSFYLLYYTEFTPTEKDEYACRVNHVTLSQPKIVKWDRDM
Assay: phage ELISA pH6

Binder | Ratio/Fc-WT [fold]
B1 | 3.7
B2 | 6.3
B3 | 4.6
B4 | 3.6
B5 | 5.2
B6 | 5
B7 | 5.9
B8 | 3.6
B9 | 5.4
B10 | 4.3
B11 | 3.7
B12 | 3.7
B13 | 6.6
B14 | 5.6
B15 | 3.8
B16 | 3.2

Target: T1, FcRn-p3 fusion protein
Assay: phage ELISA pH6
Remark: another data set of the same source

Binder | Ratio/Fc-H [fold]
B17 | 4.2
B18 | 4.5
B19 | 7.4
B20 | 4.9
B21 | 5.7
B22 | 4.5
B23 | 4.5
B24 | 4.6
B25 | 4
B26 | 7.8
B27 | 5.1
B28 | 5
B29 | 5.6
B30 | 4.6
B31 | 8
B32 | 4.6
B33 | 6.7
B34 | 7.4

Target: T1, FcRn-p3 fusion protein
Assay: phage ELISA pH6 (est.)

Binder | Ratio/Fc-WT [fold]
B17 | 13.5
B18 | 14.5
B19 | 23.8
B20 | 15.8
B21 | 18.3
B22 | 14.3
B23 | 14.4
B24 | 14.9
B25 | 12.8
B26 | 25
B27 | 16.3
B28 | 15.9
B29 | 17.9
B30 | 14.7
B31 | 25.7
B32 | 14.7
B33 | 21.4
B34 | 23.7

Target: T1, FcRn-p3 fusion protein
Assay: phage ELISA pH6 (est.)
Remark: another data set of the same source

Binder | Ratio/FWT [fold]
B17 | 13.5
B18 | 14.5
B19 | 23.8
B20 | 15.8
B21 | 18.3
B22 | 14.3
B23 | 14.4
B24 | 14.9
B25 | 12.8
B26 | 25
B27 | 16.3
B28 | 15.9
B29 | 17.9
B30 | 14.7
B31 | 25.7
B32 | 14.7
B33 | 21.4
B34 | 23.7

Target: T1, FcRn-p3 fusion protein
Assay: phage ELISA pH6
Remark: another data set of the same source

Binder | Ratio/Fc-H [fold]
B17 | 4.2
B18 | 4.5
B19 | 7.4
B20 | 4.9
B21 | 5.7
B22 | 4.5
B23 | 4.5
B24 | 4.6
B25 | 4
B26 | 7.8
B27 | 5.1
B28 | 5
B29 | 5.6
B30 | 4.6
B31 | 8
B32 | 4.6
B33 | 6.7
B34 | 7.4
